Test [1] has as its target FLAG-GFP-SLiM DDSVFA (FGFR3). Kind of test: BioID2 proximity labeling (streptavidin immunoblot quantification). The following applies: n = 3, FLAG-GFP-SLiM +DDSVFA (FGFR3).
The target of test [2] is FLAG-GFP-SLiM DDSVFS (FGFR2). The description is as above. The following applies: n = 3, FLAG-GFP-SLiM +DDSVFS (FGFR2).
Test [3] addresses FLAG-GFP-SLiM EDSVFS (FGFR1). Described as above. The conditions noted are these: n = 3, FLAG-GFP-SLiM +EDSVFS (FGFR1).
In test [4] the target is FLAG-GFP-SLiM with the predicted DDVF motif of GTSE1. The description is as above. The conditions noted are these: n = 3, FLAG-GFP-SLiM +DDEVFF (GTSE1).
Test [5] addresses FLAG-GFP-SLiM with the predicted DDVF-like motif of PTPN3. The description is as above. The conditions noted are these: n = 3; FLAG-GFP-SLiM +TEDVFY (PTPN3); parent: est. 1.6; read off a plot.
The target in test [6] is FLAG-GFP-SLiM with the predicted DDVF-like motif of TMEM139. The description is as above. The conditions noted are these: n = 3; FLAG-GFP-SLiM +DDSVFY (TMEM139); parent: est. 2.4; read off a plot.
Test [7] deals with FLAG-GFP-SLiM with the predicted DDVF-like motif of TRM9B. Described as above. The following applies: n = 3; FLAG-GFP-SLiM +DEEVFV (TRM9B); parent: est. 1.2; read off a plot.
The target of test [8] is unnamed. Kind of test: affinities annotated in the ELM database (various methods, AffinityMin). The conditions noted are these: cited from earlier work.
Test [9] deals with unnamed. The conditions noted are these: cited from earlier work.
Test [10] concerns the target unnamed. The conditions noted are these: cited from earlier work. The source holds these as a separate data set.
Target sequence in this assay (P12004 127-254): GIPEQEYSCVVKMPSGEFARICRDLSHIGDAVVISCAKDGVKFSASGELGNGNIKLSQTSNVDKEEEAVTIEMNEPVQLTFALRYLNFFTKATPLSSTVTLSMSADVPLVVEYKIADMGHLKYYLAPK

Read-outs that look alike come from different tables or passages of the source.

Sequence of Q6NS38 (Q6NS38 whole entry, looked up): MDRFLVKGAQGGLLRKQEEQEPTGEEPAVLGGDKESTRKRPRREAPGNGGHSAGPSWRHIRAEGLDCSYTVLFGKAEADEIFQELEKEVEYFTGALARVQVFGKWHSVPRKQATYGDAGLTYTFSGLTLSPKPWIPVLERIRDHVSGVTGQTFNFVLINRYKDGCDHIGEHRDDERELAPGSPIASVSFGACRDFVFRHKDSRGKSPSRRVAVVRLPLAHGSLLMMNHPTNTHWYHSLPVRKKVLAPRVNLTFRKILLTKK
Sequence of Q9H0W5 (Q9H0W5 whole entry, looked up): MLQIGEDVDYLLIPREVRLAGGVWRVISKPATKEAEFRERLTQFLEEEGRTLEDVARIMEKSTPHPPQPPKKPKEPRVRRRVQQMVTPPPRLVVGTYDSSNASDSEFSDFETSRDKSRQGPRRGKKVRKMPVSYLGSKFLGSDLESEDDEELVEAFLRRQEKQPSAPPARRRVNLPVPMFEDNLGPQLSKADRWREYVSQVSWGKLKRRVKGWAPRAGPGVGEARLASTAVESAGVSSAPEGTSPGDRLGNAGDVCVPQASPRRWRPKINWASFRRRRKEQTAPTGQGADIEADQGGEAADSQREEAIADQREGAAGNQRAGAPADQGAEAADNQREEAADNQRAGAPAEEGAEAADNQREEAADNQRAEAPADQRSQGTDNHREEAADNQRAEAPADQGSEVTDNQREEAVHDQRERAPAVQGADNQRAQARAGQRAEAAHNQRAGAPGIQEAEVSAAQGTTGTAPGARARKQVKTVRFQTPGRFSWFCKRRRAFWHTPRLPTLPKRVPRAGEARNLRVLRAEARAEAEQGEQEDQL
Sequence of P14784 (P14784 whole entry, looked up): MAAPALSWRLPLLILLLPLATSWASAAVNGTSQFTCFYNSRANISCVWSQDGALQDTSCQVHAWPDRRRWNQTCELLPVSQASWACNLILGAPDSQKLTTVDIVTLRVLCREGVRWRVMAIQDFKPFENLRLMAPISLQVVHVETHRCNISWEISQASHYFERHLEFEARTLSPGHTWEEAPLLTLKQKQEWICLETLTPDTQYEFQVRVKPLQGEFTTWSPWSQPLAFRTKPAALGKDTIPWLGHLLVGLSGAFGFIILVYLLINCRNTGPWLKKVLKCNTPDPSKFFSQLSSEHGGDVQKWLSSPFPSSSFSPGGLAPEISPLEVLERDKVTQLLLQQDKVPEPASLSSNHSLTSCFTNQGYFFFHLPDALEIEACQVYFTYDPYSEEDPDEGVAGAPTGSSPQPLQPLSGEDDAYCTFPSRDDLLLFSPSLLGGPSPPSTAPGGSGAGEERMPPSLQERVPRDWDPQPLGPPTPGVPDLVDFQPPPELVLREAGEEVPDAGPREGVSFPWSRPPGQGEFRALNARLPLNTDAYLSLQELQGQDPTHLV
Sequence of P30279 (P30279 whole entry, looked up): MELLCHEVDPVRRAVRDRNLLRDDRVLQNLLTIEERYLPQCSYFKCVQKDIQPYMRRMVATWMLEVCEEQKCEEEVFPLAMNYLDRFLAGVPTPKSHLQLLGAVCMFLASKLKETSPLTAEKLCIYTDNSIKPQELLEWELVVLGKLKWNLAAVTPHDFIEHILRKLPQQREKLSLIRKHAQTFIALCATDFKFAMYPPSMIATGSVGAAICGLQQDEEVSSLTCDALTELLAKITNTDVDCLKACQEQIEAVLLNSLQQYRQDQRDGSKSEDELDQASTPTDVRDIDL
Sequence of Q9Y698 (Q9Y698 whole entry, looked up): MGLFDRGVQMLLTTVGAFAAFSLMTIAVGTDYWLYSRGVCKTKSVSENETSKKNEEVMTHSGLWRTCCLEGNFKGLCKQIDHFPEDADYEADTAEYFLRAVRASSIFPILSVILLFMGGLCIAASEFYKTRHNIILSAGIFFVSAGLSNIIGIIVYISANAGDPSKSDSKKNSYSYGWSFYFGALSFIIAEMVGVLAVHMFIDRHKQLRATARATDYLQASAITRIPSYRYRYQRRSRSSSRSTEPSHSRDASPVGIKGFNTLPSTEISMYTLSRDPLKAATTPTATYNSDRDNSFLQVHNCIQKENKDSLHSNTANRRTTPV
Sequence of Q15054 (Q15054 whole entry, looked up): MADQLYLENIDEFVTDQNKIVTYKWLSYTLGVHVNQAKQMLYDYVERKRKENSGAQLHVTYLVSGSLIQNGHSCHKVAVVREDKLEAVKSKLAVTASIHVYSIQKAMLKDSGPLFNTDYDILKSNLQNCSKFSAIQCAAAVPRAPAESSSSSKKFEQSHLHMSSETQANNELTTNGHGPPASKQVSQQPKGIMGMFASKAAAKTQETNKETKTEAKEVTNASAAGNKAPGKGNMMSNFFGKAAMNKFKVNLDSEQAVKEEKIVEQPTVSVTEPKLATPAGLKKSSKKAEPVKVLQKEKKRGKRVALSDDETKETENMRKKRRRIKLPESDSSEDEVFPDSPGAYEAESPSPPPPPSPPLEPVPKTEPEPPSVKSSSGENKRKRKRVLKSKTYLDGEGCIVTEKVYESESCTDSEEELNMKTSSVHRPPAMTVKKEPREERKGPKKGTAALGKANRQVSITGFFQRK
Sequence of P46108 (P46108 whole entry, looked up): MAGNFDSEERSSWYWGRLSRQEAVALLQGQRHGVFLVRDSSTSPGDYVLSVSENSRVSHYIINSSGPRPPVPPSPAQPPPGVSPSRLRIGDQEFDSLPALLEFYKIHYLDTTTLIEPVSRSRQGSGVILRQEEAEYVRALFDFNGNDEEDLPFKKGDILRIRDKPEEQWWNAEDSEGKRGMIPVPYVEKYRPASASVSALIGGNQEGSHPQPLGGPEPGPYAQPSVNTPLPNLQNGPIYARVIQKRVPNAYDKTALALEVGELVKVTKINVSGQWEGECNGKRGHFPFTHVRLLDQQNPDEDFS
Sequence of P01137 (P01137 whole entry, looked up): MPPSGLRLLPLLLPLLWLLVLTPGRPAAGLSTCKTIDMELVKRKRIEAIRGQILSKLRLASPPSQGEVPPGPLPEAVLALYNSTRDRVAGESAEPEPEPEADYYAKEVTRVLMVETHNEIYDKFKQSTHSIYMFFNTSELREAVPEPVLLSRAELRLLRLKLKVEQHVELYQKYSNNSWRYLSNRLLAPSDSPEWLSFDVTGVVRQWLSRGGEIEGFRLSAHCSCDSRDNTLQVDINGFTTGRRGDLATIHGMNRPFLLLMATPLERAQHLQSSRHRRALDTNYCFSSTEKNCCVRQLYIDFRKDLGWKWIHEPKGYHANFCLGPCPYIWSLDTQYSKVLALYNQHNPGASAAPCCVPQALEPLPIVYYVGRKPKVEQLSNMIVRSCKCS
Sequence of P06400 (P06400 whole entry, looked up): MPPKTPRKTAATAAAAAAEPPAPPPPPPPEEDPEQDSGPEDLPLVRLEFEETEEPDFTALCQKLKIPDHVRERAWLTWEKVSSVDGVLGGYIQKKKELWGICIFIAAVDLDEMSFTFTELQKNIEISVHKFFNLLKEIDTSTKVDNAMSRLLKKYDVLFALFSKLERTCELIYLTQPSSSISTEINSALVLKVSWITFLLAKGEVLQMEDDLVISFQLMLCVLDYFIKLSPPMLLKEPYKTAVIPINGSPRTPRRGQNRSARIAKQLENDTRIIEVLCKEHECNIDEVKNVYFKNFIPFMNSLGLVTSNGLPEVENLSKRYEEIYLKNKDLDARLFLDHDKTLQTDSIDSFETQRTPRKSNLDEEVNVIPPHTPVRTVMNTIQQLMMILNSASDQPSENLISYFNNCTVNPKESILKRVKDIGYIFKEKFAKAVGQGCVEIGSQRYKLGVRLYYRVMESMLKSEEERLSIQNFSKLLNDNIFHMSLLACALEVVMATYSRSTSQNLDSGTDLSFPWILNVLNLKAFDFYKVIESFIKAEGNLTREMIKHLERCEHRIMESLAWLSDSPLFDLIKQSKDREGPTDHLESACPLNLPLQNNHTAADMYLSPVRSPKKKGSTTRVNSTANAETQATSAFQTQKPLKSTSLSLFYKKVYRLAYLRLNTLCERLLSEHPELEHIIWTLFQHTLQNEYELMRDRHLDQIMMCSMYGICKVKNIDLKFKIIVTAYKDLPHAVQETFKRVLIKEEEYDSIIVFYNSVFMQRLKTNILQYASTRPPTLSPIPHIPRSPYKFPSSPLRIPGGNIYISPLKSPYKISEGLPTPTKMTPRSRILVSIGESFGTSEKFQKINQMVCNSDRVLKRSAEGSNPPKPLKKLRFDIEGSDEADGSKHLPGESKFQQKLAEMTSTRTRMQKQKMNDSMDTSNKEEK
Sequence of Q86VZ6 (Q86VZ6 whole entry, looked up): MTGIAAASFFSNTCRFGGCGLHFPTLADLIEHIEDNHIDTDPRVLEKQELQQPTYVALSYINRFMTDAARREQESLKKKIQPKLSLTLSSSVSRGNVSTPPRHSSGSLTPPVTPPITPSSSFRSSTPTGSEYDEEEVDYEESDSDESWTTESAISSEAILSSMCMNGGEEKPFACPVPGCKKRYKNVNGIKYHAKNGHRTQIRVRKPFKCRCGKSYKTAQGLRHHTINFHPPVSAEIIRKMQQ
Sequence of Q92844 (Q92844 whole entry, looked up): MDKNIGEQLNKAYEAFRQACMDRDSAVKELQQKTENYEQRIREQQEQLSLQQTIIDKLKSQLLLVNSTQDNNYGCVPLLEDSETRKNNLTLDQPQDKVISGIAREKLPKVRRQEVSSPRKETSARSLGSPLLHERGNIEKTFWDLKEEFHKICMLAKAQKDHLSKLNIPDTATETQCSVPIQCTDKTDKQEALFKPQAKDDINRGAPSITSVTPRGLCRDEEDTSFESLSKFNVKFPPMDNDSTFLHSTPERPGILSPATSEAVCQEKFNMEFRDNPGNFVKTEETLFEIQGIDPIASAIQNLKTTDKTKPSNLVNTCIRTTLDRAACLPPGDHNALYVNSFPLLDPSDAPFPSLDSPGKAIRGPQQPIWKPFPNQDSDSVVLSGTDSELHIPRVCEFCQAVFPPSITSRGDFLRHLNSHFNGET

Consider “HA-RSK(WT)-BioID2 (wild-type human RSK2, ribosomal protein S6 kinase A3, fused to BioID2) (from UniProt P51812) KAKLGM-to-KSEPPY”, for which the ratio to parent in test [1] (marked *) was 2.4 fold; in test [2] (marked *) it was 3.8 fold; in [3] (marked *), 2.4 fold; in test [4] (marked *), 2.3 fold. Further, the response (normalized biotin/FLAG) was 0.43 in test [1] (parent: est. 1.0, read off a plot); 0.45 in test [2] (parent: est. 1.3, read off a plot); 0.6 in [3] (parent: est. 1.4, read off a plot); 0.38 in test [4] (parent: est. 0.85, read off a plot); 1.1 in test [5]; 0.4 in test [6]. The response (normalized biotin/FLAG) in [7] was 0.85.

Regarding O75367 (from UniProt O75367), the Kd with unnamed [8] was 63600 nM.

For the substance O95630 (from UniProt O95630), in the test with unnamed [8], the Kd is 473 nM.

Turning to P01042 (from UniProt P01042), the equilibrium dissociation constant (Kd) with unnamed [8] is 110000 nM.

Regarding P01137 (from UniProt P01137), the Kd in the test with unnamed [8] is 7.2 nM.

Regarding P06400 (from UniProt P06400), in the test with unnamed [8], the Kd was 3900 nM.

As for P10451 (from UniProt P10451), the Kd with unnamed [8] was 0.43 nM.

Consider P14784 (from UniProt P14784), for which the Kd with unnamed [8] is 750 nM.

For the substance P17535 (from UniProt P17535), in the test with unnamed [8], the Kd is 73000 nM.

P30279 (from UniProt P30279): the Kd with unnamed [8] was 2500 nM.

With P46108 (from UniProt P46108), in the test with unnamed [8], the Kd is 10200 nM.

In the case of P49137 (from UniProt P49137), the Kd in the test with unnamed [8] is 50 nM.

For P61081 (from UniProt P61081), in the test with unnamed [8], the Kd was 1800 nM.

With Q6NS38 (from UniProt Q6NS38), the Kd with unnamed [8] is 240 nM.

As for Q8NHG7 (from UniProt Q8NHG7), in the test with unnamed [8], the equilibrium dissociation constant (Kd) is 5880 nM.

Consider Q8TEB9 (from UniProt Q8TEB9), for which the equilibrium dissociation constant (Kd) in the test with unnamed [8] was 66500 nM.

Consider Q8WUK0 (from UniProt Q8WUK0), for which the dissociation constant Kd in the test with unnamed [8] was 530 nM.

Consider Q9H0W5 (from UniProt Q9H0W5), for which, in the test with unnamed [8], the Kd is 180 nM.

As to Q9H9L4 (from UniProt Q9H9L4), the Kd with unnamed [8] was 8600 nM.

Q9NZM5 (from UniProt Q9NZM5): the Kd with unnamed [8] is 23300 nM.

Q9UNA4 (from UniProt Q9UNA4): the Kd with unnamed [8] is 300 nM.

With Q9UQ84 (from UniProt Q9UQ84), in the test with unnamed [8], the Kd was 16500 nM.

For the substance Q9Y698 (from UniProt Q9Y698), the Kd with unnamed [8] was 32500 nM.

As for Q52LA3 (from UniProt Q52LA3), the Kd with unnamed [8] is 1400 nM.

Regarding Q86VZ6 (from UniProt Q86VZ6), the Kd with unnamed [8] was 8900 nM.

For the substance Q96AE4 (from UniProt Q96AE4), the Kd in the test with unnamed [8] is 6000 nM.

On to Q96ST2 (from UniProt Q96ST2), for which the Kd with unnamed [8] is 4700 nM.

As to Q01094 (from UniProt Q01094), in the test with unnamed [8], the Kd is 1060 nM.

Q13137 (from UniProt Q13137): the Kd with unnamed [9] was 1600 nM.

Q13309 (from UniProt Q13309): in the test with unnamed [8], the Kd is 3200 nM.

Consider Q15004 (from UniProt Q15004), for which the dissociation constant (Kd) in the test with unnamed [10] is 1000 nM.

For the substance Q15054 (from UniProt Q15054), the Kd in the test with unnamed [8] is 1700 nM.

With Q92844 (from UniProt Q92844), in the test with unnamed [8], the Kd is 14000 nM.

With Q99816 (from UniProt Q99816), the Kd in the test with unnamed [8] was 1000 nM.

Source of the values: paper PMC12476836.
